Assay results from patent publication US20240166738A1 (priority 2021, published 2024).
Substitutions are numbered along the chain they refer to.

Molecular target: GST-TMEM106B (truncated, comprising amino acids 122-210 of SEQ ID NO:1) (Homo sapiens, UniProt Q9NUM4)
Assay: Pre-mix epitope binning of anti-TMEM106B antibodies (Carterra / Lake Pharma)
Format: binding
Parameters: key to epitope bin: Bin 1: competes for binding to the same or overlapping TMEM106B region as the TM1, TM17, TM22, TM26, TM79, and/or TM82 antibodies; Bin 2: competes for binding to the same or overlapping TMEM106B region as the TM3, TM9, TM10, TM11, TM12, TM13, TM18, TM19, TM21, TM24, TM25, TM32, TM35, TM37, TM42, TM45, TM48, TM54, TM59, TM60, TM61, and/or TM76 antibodies; Bin 3: competes for binding to the same or overlapping TMEM106B region as the TM7, TM15, TM83, and/or TM84 antibodies; Bin 4: competes for binding to the same or overlapping TMEM106B region as the TMS, TM28, TM29, TM30, TM63, TM64, TM72, TM78, TM80, TM86, and/or TM88 antibodies; Bin 5: does not bind to a truncated TMEM106B comprising amino acids 122-210 of SEQ ID NO:1
Details: for epitope bin: competition for binding to truncated GST-TMEM106B (amino acids 122-210); for Binding Community/Bin: epitope bin number, pre-mix binning on truncated GST-TMEM106B
Description: (§1) Monoclonal anti-TMEM106B antibodies were immobilized to a CMD 50M chip (Xantec # SPMXCMD5OM lot# SCCMD50M0416). The running buffer was HBS-EP+ with 1 mg/mL BSA. The GST-TMEM106B (truncated, comprising amino acids 122-210 of SEQ ID NO:1) antigen was prepared at a final concentration of 55 nM (corresponding to 2 μg/mL) and mixed with the competing analyte anti-TMEM106B antibodies at a final concentration of 333 nM (corresponding to 50 μg/mL) or compared to a buffer control. Samples were injected for 5 minutes over the array and regenerated after every cycle with 1 minute of two parts Pierce IgG-Elution buffer (ThermoFisher Cat#21004) and 1 part of 10 mM Glycine, pH 2.0 (Carterra).
Anti-TMEM106B antibodies sorted into various competing bins and resulting binning profiles. […] Antibodies within Bin 3 or Bin 4 partially block Bin 2 antibodies.
as §1, with “SPMXCMD50M” for “SPMXCMD5OM”, “lmg/ml” for “1 mg/mL”, “(truncated)” for “(truncated, comprising amino acids 122-210 of SEQ ID NO:1)”, “μg/ml)” for “μg/mL)”

GST-TMEM106B (truncated, comprising amino acids 122-210 of SEQ ID NO:1), sequence (Q9NUM4 122-210): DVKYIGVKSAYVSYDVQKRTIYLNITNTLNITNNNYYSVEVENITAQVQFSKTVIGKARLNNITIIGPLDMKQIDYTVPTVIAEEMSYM

B1: TM-1: anti-TMEM106B monoclonal antibody; CDR-H1-3 SEQ ID NO: 2, 35, 78; CDR-L1-3 SEQ ID NO: 120, 160, 184 (antibody, V domains shown)
VH: QVQLQQSGAELVRPGTSVKVSCKASGYAFTNYLIEWVKQRPGQGLEWIGVINPGSGGTKYNEKLKGKATLTADKSSSTAYMQLSSLTSVDSAVYFCARRGYTIYDFYAMDYWGQGTSVTVSS
VL: DVLMTQTPLSLPVSLGDHASISCRSSQSIVYNNGNTYLEWYLQKPGQSPKLLIYKVSNRFSGVPDRFSGSGSGTDFTLKISRVEAEDLGVYYCFQVSHVPFTFGSGTKLEIK
epitope bin: Bin 1
Binding Community/Bin: 1

B2: TM-35: anti-TMEM106B monoclonal antibody; CDR-H1-3 SEQ ID NO: 24, 66, 109; CDR-L1-3 SEQ ID NO: 148, 160, 194 (antibody, V domains shown)
VH: QVQLQQSGPELVRPGTSVKISCKAPGYTFTRHWMQWVRQRPGQGLEWIGEILPGSNNIYYNEKVKGKATLTVDTSSSTSYMQLSSLTSEDSAVYFCARSLYDYDGVFAYWGQGTLVTVSA
VL: B1 VL with T7I, H18Q, Y31H, N32R, V96G, F101Y, S105G
epitope bin: Bin 2
Binding Community/Bin: 2

B3: TM-48: anti-TMEM106B monoclonal antibody; CDR-H1-3 SEQ ID NO: 32, 74, 116; CDR-L1-3 SEQ ID NO: 155, 160, 218 (antibody, V domains shown)
VH: QVQLQQSGPELVKPGASVKLSCKASGYTFTSYDINWVKQRPGQGLEWIGWIYPRDGNTQYIEKLKGKATLTVDTSSSTAYMELHSLTSEDSAVYFCARWIFYAMDYWGQGTSVTVSS
VL: B1 VL with D17N, H18Q, Y31H, N32G, V96G, V99L, F101Y, S105G
epitope bin: Bin 2
Binding Community/Bin: 2

B4: TM-54: anti-TMEM106B monoclonal antibody; VH SEQ ID NO: 464, VL SEQ ID NO: 500 (antibody, V domains shown)
VH: QVQMQQSGPVLVKPGASVTLSCKASGYTFTTYDLNWVKQRPGQGLEWIGWIYPRGGSTEYNEKFKGKATLTVDTSSSTAYMELHSLTSEDSAVYFCAKYSIYAMDYWGQGTSVTVSS
VL: B1 VL with H18Q, Y31H, N32G, V96G, F101W, S105G, I111M
modifications: Variable Heavy Chain -- TM-54; Variable Light Chain -- TM-54
epitope bin: Bin 2
Binding Community/Bin: 2

B5: TM-32: anti-TMEM106B monoclonal antibody; CDR-H1-3 SEQ ID NO: 13, 63, 106; CDR-L1-3 SEQ ID NO: 145, 160, 200 (antibody, V domains shown)
VH: EVQLQQSGAELVRPGASVRLSCIASGFNIKDYYMYWVKQRPEQGLEWIGRIDPEDGDTEYVPKFQGKATMTADTSSNTAYLQLSSLTSEDIGVYYCTTRTWDLYYAVDNWGQGTSVTVSS
VL: B1 VL with H18Q, S28N, Y31H, N32S, Y54D, V90I, V96G
epitope bin: Bin 2
Binding Community/Bin: 2

B6: TM-26: anti-TMEM106B monoclonal antibody; CDR-H1-3 SEQ ID NO: 2, 56, 99; CDR-L1-3 SEQ ID NO: 139, 176, 203 (antibody, V domains shown)
VH: QVQLQQSGAELIRPGTSVKVSCKASGYAFTNYLIEWVKKRPGQGLEWIGVINPGSGITNYNEKFKGKATLTADKSSSTAYMQLSSLTSEDSAVYFCARSDFITTVVADYWGQGTTVTVSS
VL: DIVVTQTPLSLPVSFGDQVSISCRSSQSLTNYYGNTYLSWYLHKPGQSPQLLIYGISNRFSGVPDRFSGSGSGTDFTLKISTIKPEDLGMYYCLQGTHQPRTFGGGTKLEIK
epitope bin: Bin 1
Binding Community/Bin: 1

B7: TM-82: anti-TMEM106B monoclonal antibody; VH SEQ ID NO: 487, VL SEQ ID NO: 522 (antibody, V domains shown)
VH: B6 VH with I12V, K19R, V37I, K39Q, N59D, N61S, T69R, E89D, A97T, D100P
VL: B6 VL with I2V, T30A, Y32T, K44T, Y54F, M90V, Q99P, I111M
modifications: Variable Heavy Chain -- TM-82; Variable Light Chain -- TM-82
epitope bin: Bin 1
Binding Community/Bin: 1

B8: TM-24: anti-TMEM106B monoclonal antibody; CDR-H1-3 SEQ ID NO: 12, 45, 88; CDR-L1-3 SEQ ID NO: 140, 170, 204 (antibody, V domains shown)
VH: QVQLKQSGPGQVQPSQSLSITCTVSGFSLSDYGVHWVRQSPGKGLEWLGVIWNNGNTDYNAAFISRLSINKDNSKSQVFFKMTSLQADDTAIYYCVRSLRPLHFDYWGQGTTVTVSS
VL: DIVMTQSPSSLTMSVGQKVTMNCKSSQSLLNSNNQQNYLAWYQQKPGQSPKLLVYFASIRESGVPDRFIGSGSGTDFTLTINSVQAEDLADYFCQQHYSTPFTFGSGTKLEIR
epitope bin: Bin 2
Binding Community/Bin: 2

B9: TM-79: anti-TMEM106B monoclonal antibody; VH SEQ ID NO: 484, VL SEQ ID NO: 519 (antibody, V domains shown)
VH: EVQLQQSGPELVKPGASVKMSCKASGYTFTNYVMHWLKQKPGQGLEWIAHITPHNDGTKYNEKFKGKATLTSDRSSSTAYMELNSLTSEDSAIYYCARSGQFGRGDYFHYWGQGTTVTVSS
VL: DIVLTQSPASLAVSLGQRATISCRASKSVSTSGSIYIHWYQQKPGQPPKLLIYLTSNLESGVPARFSGSGSGTDFTLNIHPVEEEDAATYYCQHSGELPWTFGGGARLEIK
modifications: Variable Heavy Chain -- TM-79; Variable Light Chain -- TM-79
epitope bin: Bin 1
Binding Community/Bin: 1

B10: TM-25: anti-TMEM106B monoclonal antibody; CDR-H1-3 SEQ ID NO: 10, 57, 100; CDR-L1-3 SEQ ID NO: 137, 168, 205 (antibody, V domains shown)
VH: EVQLVESGGDLVKPGGSLRLSCAASGFTFSGYGMSWIRQTPDKRLEWVATISSGGRYTVYPDSVKGRFTMSRDNVKNTLYLQMSSLKSEDTALYYCARDNFYSYAMDYWGLGTSVTVSA
VL: DIVMTQAAFSNPVTLGTSASISCRSSKSLLHSNGITYLFWYLQKPGQSPQLLIYQMSNLASGVPDRFSSSGSGTDFTLRISRVEAEDVGVYYCAQNLELWTFGGGTKLEIK
epitope bin: Bin 2
Binding Community/Bin: 2

B11: TM-3: anti-TMEM106B monoclonal antibody; CDR-H1-3 SEQ ID NO: 4, 37, 80; CDR-L1-3 SEQ ID NO: 122, 162, 186 (antibody, V domains shown)
VH: QVTLKESGPGIVQPSQTLSLTCSFSGFSLNTLGRGVGWIRQPSGKGLEWLAKIWWNDDKFYYPALKSRLTISKDTSKNQIFLKIANVDTADSATYYCARIAGGTGAAYWGQGTTLTVSS
VL: DIVMTQAAFSNPVTLGTSASISCRSSKSLLHSNGITYLYWYLQKPGQSPQLLISQMSSLASGVPDRFSSGGSGTDFTLRISRVEAEDVGVFYCAQNLELPWTFGGGTKLELK
epitope bin: Bin 2
Binding Community/Bin: 2

B12: TM-17: anti-TMEM106B monoclonal antibody; CDR-H1-3 SEQ ID NO: 17, 51, 94; CDR-L1-3 SEQ ID NO: 132, 172, 196 (antibody, V domains shown)
VH: QVQLQQSGAELIRPGTSVKVSCKASGYAFTDYLIEWVKQRPGQGLEWIGVINPGSGGTNYNEKFKGKAKLTADKSSSTAYMQLSSLTSEDSAVYFCVRSSYGVYVAYPMDYWGQGTSVTVSS
VL: DIQMTQSPSSLSASLGERVSLTCRASQDIGSNLNWLQQEPDGTIKRLIYATSSLDSGVPKRFSGSRSGSDYSLTISSLESEDFVDYYCLQYASSPRTFGGGTKLEIK
epitope bin: Bin 1
Binding Community/Bin: 1
